Measured values taken from patent US20190062457A1 (BROWN UNIVERSITY, published 2019).

Target: T1, human Chi3l1 (chitinase 3-like-1) (human, UniProt P36222 22-383)
T1 construct: also called YKL-40; recombinant (r) human Chi3l1
Experiment: Western blot / ELISA detection of Chi3l1, denaturing and non-denaturing

T1 sequence (P36222 22-383 limits assumed): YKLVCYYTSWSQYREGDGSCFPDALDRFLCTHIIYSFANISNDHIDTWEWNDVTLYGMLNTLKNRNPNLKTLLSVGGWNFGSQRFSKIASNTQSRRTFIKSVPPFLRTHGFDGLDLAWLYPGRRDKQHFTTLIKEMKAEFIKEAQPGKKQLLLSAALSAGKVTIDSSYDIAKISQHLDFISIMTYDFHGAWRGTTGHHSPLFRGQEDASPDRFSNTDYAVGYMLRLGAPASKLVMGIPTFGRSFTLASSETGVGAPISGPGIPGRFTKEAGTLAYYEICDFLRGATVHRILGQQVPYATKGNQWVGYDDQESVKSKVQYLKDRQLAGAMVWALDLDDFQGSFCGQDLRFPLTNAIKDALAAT

B1: FRG monoclonal antibody (anti-Chi3l1) (antibody, IgG2b, V domains shown)
VH: QIQLVQSGPELKKPGETVKISCKASGYTFTNYGMNWVKQAPGKGLKWMGWINTYTGEPTYADDFKGRFAFSLETSASTAYLQINNLRNEDMSTYFCARLGYGKFYVMDYWGQGTSVTVSS
VL: DVVMTQTPLSLPVSLGDQASISCRSSQSLVHSNGNTYLHWYLQKPGQSPKLLIYKVSNRFSGVPDRFSGSGSGTDFTLKISRVEAEDLGVYFCSQSTHVTWTFGGGTKLEIK
notes: The antibody is described as an IgG2b Kappa monoclonal; also called FRG mAb; FRG antibody
Does B1 bind?
Result: binds
